Results: the DeepSol protein solubility set

Test: soluble on expression in E. coli; label from the status in PepcDB or PDB records

| Sequence | soluble on expression in E. coli |
| --- | --- |
| AIADEEEEISVVQDMAYDYSGKRLATVSIDREICIWNKKDDWQRTYQWKAHEGPLFGVSWAHPCFGNILATGSYDKRVIIWEEPEASSSYSSSSMDKSTKGWTALAHLVDARDEVRQVQFAPPHLGLLLASGSADGYVRIYTCIDEADLHQWPLLTELDMDSPVVGMSWNPSVDSIPLIVVASHKDCRVWSMDNDTRRWTDWHLFRTSESDTADLSAVAWAPHVGRSFERIALGCEDGSILLFQFPRIQQGNKTNGHEMQPICRLNHGNERIVRLQWNMVGSILASSASDRMVRLWKALPQDGTRWNCFDVVHLNE | soluble |
| SVREANIKQATAEKQLKEAQGKIDVLQAEVAALKTLVLSSSPTSPTQEPLPGGKTPFKKGHTRNKSTSSAMSGSHQDLSVIQPIVKDCKEADLSLYNEFRLWKDEPTMDRTCPFLDKIYQEDIFPCLTFSKSELASAVLEAVENNTLSIEPVGLQPIRFVKASAVECGGPKKCALTGQSKSCKHRIKLGDSSNYYYISPFCRYRITSVCNFFTYIRYIQQGLVKQQDVDQMFWEVMQLRKEMSLAKLGYFKEEL | soluble |
| MGSDKIHHHHHHMNARKGGVDRSRAEAGMADTLFFFHNPKAGGTSVEDALRSLFPDERCCPRIENDATEHAQRAGRYAGFRGYDFYAGHYGFDIYQAVGSGMAAATNFRWPIDRIVSVYRYFHHIVELSDSQVRDPRFRAVRLAKTLCMDDFVTCDDPAVQLHTHDHHFRQLTGSGWSMANEQDLSAAIRLINQMVWFYVCEHPHESLAWAEEAFCRALPEIPRLNITRPDSASETGLSARACRQLILQNERDIVLYQYALERLIAQVTHEPSRLVA | not soluble |
| MSLGNRMKVCIYGAGAIGGYLGVQLAQSGAADVSLVARGAHLQAMKENGLKLLIEGEERVIKPNATDKPAELGVQDVIIICLKAHSITGAIDSMKPLLGSHTRIVTAVNGVPYWYFHKHGGNEFEGRTLESIDPGGRQWKELGPERGIGCIVYPATELEAPGVIRHVYGDKFPIGEPSGETTSDVENLSKVFEASGLKAPILDRIRDEIWLKLWGNVCFNPISALTHATLDVIASDPATRALSKAMMLEAQQIAETFGVKFRVDVERRIEGARKVGAHKTSMLQDLERGRPMEIDPLVTVVQEMGRMTNIPTPAIDSVLGLVIQRAKVAGLYEGHHHHHH | soluble |
| MSLMLKKNDIIQVAISDLSHEGAGVAKHDGFVFFVDNALPEEVIDMRVLKVNKNSGFGKVEAYHYLSSARNADVNLTYLRTGIADLGHLTYEDQLTFKKKQVQDSLYKIAGISDVTVESTIGMTEPLAYRNKAQVPVRRVNGQLETGFFRKHSHDLIPISDYYIQDKEIDRLINFTRDLLRRFDIKPYDETEQTGLLRNIVVRRGHYSGEMMLVLVTTRPKVFRVDQVIEKIVEAFPAVVSIIQNINDKNTNAIFGKDFKTLYGKDTITDSMLGNNYAISAQSFYQVNTVMAEKLYQTAIAFSDLSKDDIVIDAYSGIGTIGLSFAKTVKAVYGVEVIEAAVRDAQQNAALNGITNAYFVADTAEHAMATWAKDGIKPSVILVDPPRKGLTESFIQASVAMGPQKITYVSCNPATMARDIKRYQELGYKLAKVQPVDLFPQTHHVECVVLLIKEEGHHHHHH | soluble |
| MAHHHHHHMMQSKVLPTPQDVVLQGLLSLDSTVKTKTHALVSRQLDRLESYLRIKCGWSVPLSSSSTSAEAGCGSNVVRVSEYVRAFTPDGVPIVDRNGGSFNCFVCCGFGDHAMDFAPGAAKVLGKLVEHQAQHLREEDIEKTKTWGLLTSKLSPSRRAAVEEELQLLFNGVDSDAVKRKGSRTPSEASALALLRHEDNPYSTNRFANMVRKEVKMDSSPPILSRLCALEDVFLTHLEPLRRRFHAKATELALRENTPDWLRTFVFCFMYEEDDDPAAQARKEQHVRSLQRLASQYETPVTDAKTTGDGAEELPLTPAEQSKRKQAELERRAREVFAKRV | not soluble |
| MGRIKQMTPNVMRLLKACFVEQIPDEVCDEFHLKKDTEHMILITKDGGMPISKIKPLSDSQVLSVLSQILLSLYIGKRELQFSHNDLNPGNLLISETKKKSISYKKDGKSIKIKSHGRFLTLIDLQKSTFDEKEDKGLDCWKLNSRVRDQFLPLVKEDTKKILAKVAEEIEKTTILDWKLPGMLPIQ | not soluble |
| MSSIASNTFTKTVESVPVDIKYDSDKYFISGYSYDAEVYLTATTQLALTTETTSDTRHFKLVADLSNFGPGTSHVPIQVKNLPDGMSAQVSPSTLTATIGKKASKTFDVVANITPDKLANGYEVKKVSLDETKVEVTSSEDIINQIDHVQAVLEGDDNLSDDYDGNLVLQAVSSNGTILASSISPAKVHAKISLRKLSKSVPVKLELTGDKASNVSSISYSFDRGHVTIVGSQEAMDKIDSITVPVDISQVTEDTSKTLELKAEGVTVQPSTVKVNLKVTQKLEHHHHHH | soluble |
